Usually EC50 stands for the concentration that produces a half-maximal response. High values mean weaker potency, low ones greater potency.

These results are taken from US20160243230A1.

The assay deals with Vκ4Len(1-22) peptide, P06312. The experiment in a line: EuLISA, peptide dried on the plate, 11-1F4 titrated from 100 nM.

B1: murine 11-1F4 monoclonal antibody (antibody)
chain 1: QVQLKESGPGLVAPSQSLSITCTVSGFSLSSYGVSWVRQPPGKGLEWLGVIWGDGSTNYHPNLMSRLSISKDISKSQVLFKLNSLQTDDTATYYCVTLDYWGQGTSVTVSS
chain 2: DVVMTQTPLSLPVSLGDQASISCRSSQSLVHRNGNTYLHWYLQKPGQSPKLLIYKVSNRFSGVPDRFSGSGSGTDFTLKISRVEAEDLGLYFCFQTTYVPNTFGGGTKLEIK
As to B1, the EC50 came to 0.5 nM.
